We go through 22 sequences from the DeepSol protein solubility set.

The series in a line: soluble on expression in E. coli; label from the status in PepcDB or PDB records.
As for “HHHHHHHMTAPAADDRIDEIERAITKSRRYQTVAPATVRRLARAALVAARGDVPDAVKRTKRGLHEIYGAFLPPSPPNYAALLRHLDSAVDAGDDEAVRAALLRAMSVHISTRERLPHLDEFYRELFRHLPRPNTLRDLACGLNPLAAPWMGLPAETVYIASDIDARLVGFVDEALTRLNVPHRTNVADLLEDRLDEPADVTLLLKTLPCLETQQRGSGWEVIDIVNSPNIVVTFPTKSLGQRSKGMFQNYSQSFESQARERSCRIQRLEIGNELIYVIQK”, the “soluble on expression in E. coli” value is “soluble”.
Then “HHHHHHLQGAAPTATVTPSSGLSDGTVVKVAGAGLQAGTAYDVGQCAWVDTGVLACNPADFSSVTADANGSASTSLTVRRSFEGFLFDGTRWGTVDCTTAACQVGLSDAAGNGPEGVAISFN”, with “soluble”; and “HHHHHHSSGLVPRGSHMSCEELEIVWNNIKAEARTLADCEPMLASFYHATLLKHENLGSALSYMLANKLSSPIMPAIAIREVVEEAYAADPEMIASAACDIQAVRTRDPAVDKYSTPLLYLKGFHALQAYRIGHWLWNQGRRALAIFLQNQVSVTFQVDIHPAAKIGRGIMLDHATGIVVGETAVIENDVSILQSVTLGGTGKSGGDRHPKIREGVMIGAGAKILGNIEVGRGAKIGAGSVVLQPVPPHTTAAGVPARIVGKPDSDKPSMDMDQHFNGINHTFEYGDGI”, with “soluble”; and “HKQLNFVDLYYHPVLADMAALLSQKNVFKAIYTFVPRTDDMGDKPALFVIHSGNTGSDVYRPLFTGIKRPSFPIYVIEPHNLLNPEDQIYGIENLAKYYLQMINKFLPESSKREINLMGWSYGGVVASEMCYQLEHETSLLHVNQLTVLDSSFYLSSEDLQRVRKREANGFYAKYFTETHIFEGMDKKNVTTERLIANNHQVCEDLFNYHSKQVNVATTFVRSMVEENPLTDEQIKLLFKHVTIKNVYDGHDYLFVHESSRSLIQDVLGLAA”, with “not soluble”.
For HMGKIYAAMMIMEYYRQSKAKK, the “soluble on expression in E. coli” value is listed as “soluble”.
Then “HQPVSFGLSVRKSLPKGFSVETGLTYTLLSSDIKRQGDTKMQSQKLHYIGIPVRGNWNFLEKKYFTLYVSAGGMVEKCVYGKLADDKVNVKPLQFSVAGAVGAQFNATDHVGLYVEPGVSYFFDDGSKVQTIRKERPCNFNLQAGLRFTY”, with “not soluble”.
Under “HQYSDLTINPSLGPASPTSFDDLATYRFEQWVNNLDITRAFDGLFGVPLQVSAGLEHRWERFRTFSGDAQAYQVGGYRFPASLPNGQASPLAGQLASIAAQAAAVISPQDATRLQRNNYAAYVDFGITPIEPLFVDLALRAEHFDDDSGNTVSAKLNSRYEFTDTFAVRGTVGTGFRAPSLTQTGYSISDNRVGAAPDGTIVPAVTRIAPVNSALAQALGATTLDPEKSRNLGVGVTWQPAPRTSLTADAYWIEIADRIARTESLYGPALAPTLTAQGVDTSTWTSYYANAFDTRTRGLDIVLD” stands “not soluble”; under “HSPKVSSQNRTRSFGHFPGPEFLDVEKTSFSQEQSCDSAGEGSERIHQDSESGDELSSSSTEQIRATTPPNQGRPDSPVYANLQELKISQSALPPLPGSPAIQINGEWETHKDSSGRCYYYNRGTQERTWKPPRWTRDASISKGDFQNPGDQEWLKHVDDQGRQYYYSADGSRSEWELPKYNASSQQQREIIKSRSLDRRLQEPIVLTKWRHSTIVLDTNDKESPTASKPCFPENESSPSSPKHQDTDQEKYGLLNVTKIAENGKKVRKNWLSSWAVLQGSSLLFTKTQGSSTSWFGSNQSKPEFTVDLKGATIEMASKDKSSKKNVFELKTRQGTELLIQSDNDTVINDWFKVLSSTINNQAVETDEGIEEEIPDSPGIEKHDKEKEQKDPKKLRSFKVSSIDSSEQKKTKKNLKKFLTRRPTLQAVREKGYIKDQVFGSNLANLCQRENGTVPKFVKLCIEHVEEHGLDIDGIYRVSGNLAVIQKLRFAVNHDEKLDLNDSKWEDIHVITGALKMFFRELPEPLFTFNHFNDFVNAIKQEPRQRVAAVKDLIRQLPKPNQDTMQILFRHLRRVIENGEKNRMTYQSIAIVFGPTLLKPEKETGNIAVHTVYQNQIVELILLELSSIFGR”, “soluble”; under “HSSGLVPRGSHMAIIFPGQGAQKVGMAQDLFNNNDQATEILTSAAKTLDFDILETMFTDEEGKLGETENTQPALLTHSSALLAALKNLNPDFTMGHSLGEYSSLVAADVLSFEDAVKIVRKRGQLMAQAFPTGVGSMAAVLGLDFDKVDEICKSLSSDDKIIEPANINCPGQIVVSGHKALIDELVEKGKSLGAKRVMPLAVSGPFHSSLMKVIEEDFSSYINQFEWRDAKFPVVQNVNAQGETDKEVIKSNMVKQLYSPVQFINSTEWLIDQGVDHFIEIGPGKVLSGLIKKINRDVKLTSIQTLEDVKGWNEND”, “soluble”.
On to “HVKVGFSPEKLRPYTTMPADFQQFWENQKAELAKFPLTYTKEHVKKYSTDQIDCYLIKLQVNQRGQSIYGYLFYPKKEGKYPVVLCPPGAGIKTIKEPLRHKYYAEQGCIRFEIEIHGLNPEMSEEEFKEISAAFNGRENGYLSNGLDSRDNYYMKRVYLACVRSIDLLTSLPEWDGKNVVVQGGSQGGALALVTAGLDQRVTACVANHPALSDMAGYKAGRAGGYPHFFRNTVDMDTPEKIRTMAYYDVVNFAQLIRADTYMTWGFNDNVCPPTTSYIVYNVLNCPKEALITPINEHWTSSDTEYGHLLWIKKHLK”, for which the “soluble on expression in E. coli” value was “not soluble”.
Under “ICTTICPYGRLQGVLLDKNSINVAYDYIRGERRGHLKRGEDREIAGKGDCIDCHQCVHVCPTGIDIRNGVQMECINCTACIDEC” stands “not soluble”.
Under “IKTTKALQLNDEQQVAVDQITQAVDQAATTTFLLEGVTGSGKTEVYLQSMAAALVQGKTALMLVPEISLTPQMVQRVKGRFGKAVAVLHSGLSSGEKYDEWRRIQRGEAQVVVGARSAVFAPLKNLGLIVMDEEHESTYKQDDAPRYHARQVALWRSRYHNCPVVLGSATPSLETRARAEKG” stands “not soluble”.
Under “IMIRTDRYGVITYANEKFCEILKYDKEELIGQRFDILNSHYHAQRFFDIMWETISTGNVWNDEIRNKAKDGSYVWLDTTIIPVLNDEHVPNQYIAIYTDLS” stands “not soluble”; under “ISDVKFTVRGNITYSKNEIIERDEENNVYAYQMKKGYRVNQNRGLIALGLFKDYDDIRNSPTQKYGPVMPGDIKYKDVNGDGVVNDGDIVAIGSTSKPNLIYGLGLSATWKGLDVSLHFQGAGKSQFFTYGKCIWAFTEGQWGNILKGTLDNRWVDAETAQKLGIPANENPNASYPRLSYTDNGNGNTTIYEYKNNYRNSTYWLRNGSYVRLKTIDVGYTLPKKIVNKIHFNNVRIFMTGTNLLTWSSFKLWDPEMGASRGEQYPLAKSITLGLSVNL”, “not soluble”.
On to “ITGTSTVGVGRGVLGDQKNINTTYSTYYYLQDNTRGNGIFTYDAKYRTTLPGSLWADADNQFFASYDAPAVDAHYYAGVTYDYYKNVHNRLSYDGNNAAIRSSVHYSQGYNNAFWNGSQMVYGDGDGQTFIPLSGGIDVVAHELTHAVTDYTAGLIYQNESGAINEAISDIFGTLVEFYANKNPDWEIGEDVYTPGISGDSLRSMSDPAKYGDPDHYSKRYTGTQDNGGVHINSGIINKAAYLISQGGTHYGVSVVGIGRDKLGKIFYRALTQYLTPTSNFSQLRAAAVQSATDLYGSTSQEVASVKQAFDAVGVK”, for which the “soluble on expression in E. coli” value is listed as “soluble”.
Consider “IVMAETKETVIDEVVVTGTGAQKKVTVTGAVTTVDVSQLRTPTASITNALAGNVAGILARQTSGQPGSNISEFWIRGISTFGAGGSALVLVDGFERDMNEINVEDIQDFSVLKDASATAIYGSRGANGVVLITTKRGKEGK”, for which the “soluble on expression in E. coli” value is “not soluble”.
Then “KDADHIHHLIDQSLIAKGFQEILTNSLTKGAYNELLSKQEDAVPILNKLSEELAFMRPSLAFTGLETVAYNINRRQKNLKLFEWGKVYFKRGTKYNEYNRLSVFITGNQHAESWNTPSKTVDFFDMKAVVVQILEKLHIAVTQVQEIESNPLFSKGVIYKHAGKELVQFGYISQAALKATDVKQEVLFADFNADLLLELYSNKSKYKEIS”, with “not soluble”.
Then “KEPSHNSFTFNESLSFTGFSKLDNNTNFNASIVSDDNRAGAMVFGQARYRNHWDANNDGYSELGKIDARSLGAHSYLRLSDYSKLTGEFHTISEFRRGGDRIDLPPHVVGVAEQTDHSVFSGNLKYDLFSSNYKHHFQAYTSGQIVNRKSYYGGIGEIDVNGHPGGTEGYPIPQDQYGNNYGVTKGKTYMGGIQYSYDLDKFLLMPSQLLFGAEYTRDELNDVMPILSWQTGEDANGNTIPLYPELDQNINNYSLFGQNEWKNDRWSILVGARLDKHSEVKDMILSPRTTLRFNVNPDINLRATYAKGFRAPQVFDEDLHVGVVGGEAQKVFNDPNLKPEISHAFSLSADMYHRFGNVQTNFLVEGFYTRLLDVFTNEEQPDQHDGIKRYTRINGSGAKVFGLNLEGKVAYKSFQLQAGLTLASNKYDEAQEWGLNTVKDTNGAFVTEANANGQQEYKNESMTDTQITRTPSVYGYFTLAYNPAHSWNIALTGAYTGQMYVPHAIEYGVKSAELDIMQNNPEITDETGKAPRIDELKKTPAFFDLGLKVGYDFHVFQATEVQLYVGMNNIFNSFQKDFDRGAARDSGYIYGPTQPRTGYMGLVVKF”, with “not soluble”; and “KEVRLSKHFYEDKEIEEIKHKDLAETPFQQQVIDYLYRHIAAQKEKVVEQQLQIKNHEQTITEFVHDIKTPVTAMKLLIDQENDDQRKRALLFEWSRINEMLDKQLYLTRLETHHRDMYFDYISLKRMVIDEIQVTRHISQAKGIGFELDFKDEQKVYTDVKWCRMMIRQVLSNSLKYSDNSTINLSGYNIEGHVVLKIKDYGRGISKRDLPRIFDRGFTSTTDRNDTASSGMGLYLVQSVKEQLGIEVKVDSIVGKGTTFYFIFPQQNEIIERMSKVTRLSF”, with “not soluble”; and “KGTLYVVGTPIGNLRDITLRALEILSAVDCIAAEHIQHAQKLLAGHALHTTSTRIMPLHQHNEGSAVEKIIELLGSGKSVALISDAGTPAISDPGALLVQQVLARSLPVVPIPGA”, with “not soluble”.
Under “KIGKHTIKFPIFQGGMGVGISWDELAGNVAKEGALGVISAVGTGYYKNMRFVERIVAKKPFEALNFYSKKALNEIFANARKICGNNPLGANILYAINDYGRVLRDSCEAGANIIITGAGLPTNMPEFAKDFSDVALIPIISSAKALKILCKRWSDRYKRIPDAFIVEGPLSGGHQGFKYEDCFKEEFRLENLVPKVVEASKEWGNIPIIAAGGIWDRKDIDTMLSLGASGVQMATRFLGTKECDAKVYADLLPTLKKEDILLIKSPVGYPARAINTGVIKRIEEGNAPKIACVSNCVAPCNRGEEAKKVGYCIADGLGRSYLGNREEGLYFTGANGYRVDKIISVHELIK” stands “not soluble”; under “KKITRPIEKLSDTVSQMAKGQYDTRAKIKTDGEVGDLVNSFNIMADRLEKNIEELEDTARRQEDFTAAFAHELKTPLTSIIGYSDMMRSMDLEKEEISEYSNYIFLQGKRLEKLSFTLMDLISLDKQKIEFNRISTEKMFNDIEKTVEQMLREHNIRFKMSVEPAVIVGNEDLLKSLFMNIIDNGRKAISGQGIIALKAIKTEKGYTVFIQDNGCGMEKSEIKKITEAFYMIDKSRARKEGGAGIGMSLCKKIVSIHNAKWSVRSKPGKGTIISIVFQEGQN”, “not soluble”.
